From US20240182575A1 (Ablynx, published 2024)
Changes are numbered by the printed parent chain. Blank lines part the entries; values can stand above or below the binder they belong to.

What was measured:
[1] = biological target: T1, rhPDL2-Fc (fusion protein of the extracellular part of human PD-L2 and mouse Fc gamma 1, R&D Systems Cat … (human; mouse, UniProt Q9BQ51 20-220; P01868 98-324 = IgG part, limits assumed); experiment: competition ELISA, coated PD-L2; blocked ligand PD-1-biotin
T1 construct: extracellular domain;domain: Fc; bought; also called PD-L2 ectodomain
Description: In short, 2 μg/ml PD-L2 ectodomain (R&D Systems, Minneapolis, US, Cat #1224-PL) was immobilized on maxisorp microtiter plates (Nunc, Wiesbaden, Germany) and free binding sites were blocked using 4% Marvel in PBS. Next, 0.5 μg/ml of PD-1 was preincubated with a dilution series of purified Nanobody.

[2] = biological target: T2, rhB7H1-Fc (fusion protein of the extracellular part of human B7-H1 (PD-L1) and mouse Fc gamma 1, R&D Systems … (human; mouse, UniProt Q9NZQ7 19-238; P01868 98-324 = IgG part, limits assumed); experiment: ELISA, coated B7-H1
T2 construct: extracellular domain;domain: Fc; bought; also called B7-H1 ectodomain

[3] = biological target: T3, HuCTLA4-HuIgG1 (fusion protein of the extracellular part of human CD152 and human Fc gamma 1, CTLA4-Ig) (human, UniProt P16410 36-161); experiment: SPR, Biacore T100, CTLA4-Ig amine-coupled
T3 construct: extracellular domain; also called CTLA4-hFc; CTLA4-Fc; not shown: human Fc gamma 1
Description: Affinity constants (Kd) of individual purified Nanobody clones were determined by surface plasmon resonance on a Biacore T100 instrument. […] Remaining reactive groups were inactivated using ethanolamine. […] Each sample was injected for 2 min at a flow rate of 45 μl/min to allow for binding to chip-bound antigen. Next, binding buffer without Nanobody was sent over the chip at the same flow rate to allow for dissociation of bound Nanobody. After 2 min, remaining bound analyte was removed by injecting regeneration solution (10 mM Glycine/HCl pH 1.5). Binding curves obtained at different concentrations of Nanobody were used to calculate KD values. For some clones, only a single undetermined concentrations of Nanobody was injected.

[4] = biological target: T4, cynomolgus monkey CTLA4 on stably transfected CHO-K1 cells (human CTLA4 cDNA with S13N, I17T and L105M) (human backbone with cynomolgus monkey …, UniProt P16410 36-223); experiment: FACS, direct binding titration on cyno CTLA4 CHO cells (head prints IC50)
T4 chain: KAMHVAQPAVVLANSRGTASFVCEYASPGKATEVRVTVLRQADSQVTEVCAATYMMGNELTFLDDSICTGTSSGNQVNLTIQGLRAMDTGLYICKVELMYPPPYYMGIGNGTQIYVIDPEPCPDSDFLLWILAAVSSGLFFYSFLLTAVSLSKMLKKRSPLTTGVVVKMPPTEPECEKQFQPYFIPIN

[5] = biological target: T5, human CTLA4 (Y201 mutated to valine) on stably transfected CHO-K1 cells (human, UniProt P16410 36-223); experiment: FACS, direct binding titration on human CTLA4 CHO cells (head prints IC50)
T5 construct: whole, on cells; the mutation of the intracellular position Y201 keeps the protein on the membrane; also called human CTLA4 overexpressing CHO cells; human CTLA4 transfectant
Description: Binding of putative CTLA4 reactive Nanobodies clones was detected using unlabeled anti-c-myc tag mouse monoclonal antibody 9E10, followed by a phycoerythrin conjugated F(ab′)2 derived from goat-anti-mouse IgG (human and bovine crossabsorbed), and read on a BD FACSarray instrument. Dead cells were excluded from the analysis by gating out TOPRO3 vital dye positive scoring cells. Binding of the Nanobodies to cells was evaluated in BD FACSarray control software as PE channel histograms.

[6] = biological target: T5, human CTLA4 (Y201 mutated to valine) on …; experiment: FACS competition, human CTLA4 CHO cells; blocked ligand CD80-Fc
Source text: The potency of selected Nanobodies to inhibit the interaction of CTLA4 with CD80 was also ranked using FACS based screening method. […] This concentration was previously determined to be the minimal amount required to saturate all CD80 binding sites on both human and cyno CTLA4 expressing CHO cell clones in the absence of any CTLA4 interaction blocking proteins. […] Dead cells were stained by including TOPRO3 vital dye in the final resuspension buffer. All samples were read on a BD FACSarray instrument. Dead cells were excluded from the analysis by gating out TOPRO3 vital dye positive scoring cells.

[7] = biological target: T6, rhB7-H2-Fc (fusion protein of the extracellular part of human B7-H2 (ICOSL) and mouse Fc gamma 1, R&D Systems … (human; mouse, UniProt O75144 19-256; P01868 98-324 = IgG part, limits assumed); experiment: competition ELISA, coated B7-H2; blocked ligand ICOS-biotin
T6 construct: extracellular domain;domain: Fc; bought; also called B7-H2 ectodomain

[8] = biological target: T2, rhB7H1-Fc (fusion protein of the …); experiment: competition ELISA, coated B7-H1; blocked ligand PD-1-biotin
Description: Next, 0.5 μg/ml of PD-1 was preincubated with a dilution series of purified Nanobody.

[9] = biological target: T7, human CD28 on Jurkat cells (human, UniProt P10747 19-220); experiment: FACS competition, Jurkat cells; blocked ligand CD80-Fc
T7 construct: whole, on cells; also called native form of the CD28 antigen; cell expressed CD28
Source text: The potency of cell-expressed CD28 binding Nanobodies to inhibit the interaction of CD28 with either CD80 or CD86 was also ranked using FACS based screening method. […] Dead cells were stained by including TOPRO3 vital dye in the final resuspension buffer. All samples were read on a BD FACSarray instrument. Dead cells were excluded from the analysis by gating out TOPRO3 vital dye positive scoring cells.

[10] = biological target: T8, HuCD28-HuIgG1 (fusion protein of the extracellular part of human CD28 and human Fc gamma 1, R&D Systems Cat … (human, UniProt P10747 19-152; P01857 100-330 = IgG part); experiment: competition ELISA, CD28-hFc in solution; blocked ligand coated B7-1-muFc
T8 construct: extracellular domain;domain: Fc; bought; also called CD28-Ig; hCD28-Fc

[11] = biological target: T9, rhPD1-Fc (fusion protein of the extracellular part of human PD-1 and mouse Fc gamma 1, R&D Systems Cat … (human; mouse, UniProt Q15116 25-170; P01868 98-324 = IgG part, limits assumed); experiment: competition ELISA, coated PD-1; blocked ligand B7-H1-biotin
T9 construct: extracellular domain;domain: Fc; bought; also called PD-1 ectodomain
Description: (§1) In short, 2 μg/ml PD-1 ectodomain (R&D Systems Cat #1086-PD, Minneapolis, US) was immobilized on maxisorp microtiter plates (Nunc, Wiesbaden, Germany) and free binding sites were blocked using 4% Marvel in PBS.

[12] = biological target: T9, rhPD1-Fc (fusion protein of the …); experiment: competition ELISA, coated PD-1; blocked ligand PD-L2-biotin
Description: as §1

- IC50 (read off the curve) [1]: ~7 nM
B1: 103F6 (VHH)
VHH: EVQLVESGGGLVQPGGSLRLSCAASGFTFSTYTMIWLRRAPGKGFEWVSTIDKDGNTNYVDSVKGRFAVSRDNTKNTLYLQMNSLKPEDTAMYYCTKHGSSARGQGTRVTVSS
notes: Nanobody against PD-L2

- EC50 (read off the curve) [2]: ~10 nM
B2: 104E12 (VHH)
VHH: EVQLVESGGGLVQPGGSLRLSCAASGFTFDYYAIGWFRQAPGKAREGVSCISGGDNSTYYADSVKGRFTISRDNAKNTVYLQMNSLKPEDTAVYYCATGGWKYCSGYDPEYIYWGQGTQVTVSS

- Kd [3]: 0.638 nM
- koff [3]: 0.00391 s⁻¹
- kon [3]: 6.13e+06 M⁻¹ s⁻¹
- IC50 [4]: 2.42 nM
- IC50 [5]: 2.56 nM
- IC50 (read off the curve) [6]: ~10 nM
B3: 4CTLAPMP02F2 (VHH)
VHH: EVQLMESGGGLVQTGGSLRLSCAASGRTFSNYTMGWFRQAPGKDREFVAAISRSGSLKAYADSVKGRFTPSRDNAKKMAYLQMNSLKPEDTAVYYCAAAPVPWGTRPSLFPYDSWGQGTQVTVSS
notes: short label tied to the entry by the clone code only; not shown: C-terminal c-myc tag and His6 tag

- Kd [3]: 0.478 nM
- koff [3]: 0.00355 s⁻¹
- kon [3]: 7.42e+06 M⁻¹ s⁻¹
- IC50 [4]: 2.08 nM
- IC50 [5]: 2.28 nM
- IC50 (read off the curve) [6]: ~8 nM
B4: 4CTLAPMP02G2 (VHH)
VHH: B3 VHH with M5V, G8R, A59S, P70I, L109F, P111T
notes: as for B3

- IC50 (read off the curve) [7]: ~8 nM
B5: 95F8 (VHH)
VHH: EVQLVESGGGLVQAGGSLRLSCAASGIAFSIDIMDWYRQAPGKERELVATISGGGSTNYADSVKGRFIVSRDNAKNILYLQMNSLKPDDTAVYYCNARRLIYGRTVYWGQGTQVTVSS
notes: Nanobody against B7-H2 (ICOSL)

- IC50 (read off the curve) [7]: ~10 nM
B6: 95B11 (VHH)
VHH: EVQLVESGGGLVQPGGSLRLSCAASRSISSFNLLGWYRQAPGKQRELVAHLLSGGSTVYPDSVKGRFTVSRDNTKNTVYLQMNSLKPEDTAVYYCNAIAPALGSSWGQGTQVTVSS
notes: as for B5

- IC50 (read off the curve) [1]: ~10 nM
B7: 103E2 (VHH)
VHH: EVQLVESGGGLVQAGGSLRLSCAASGSTFSNYVSNYAMGWGRQAPGTQRELVASISNGDTTNYADSVKGRFTISRDNAKNTVYLQMNSLKPEDTAVYYCFEHQVAGLTWGQGTQVTVSS
notes: Nanobody against PD-L2

- IC50 (read off the curve) [8]: ~20 nM
B8: 104B10 (VHH)
VHH: EVQLVESGGGLVQAGGSLRLSCAASGSTFSQYDVGWYRQAPGKQRELVAFSSSGGRTIYPDSVKGRFTFSRDNTKNTVYLQMTSLKPEDTAVYYCKIDWYLNSYWGQGTQVTVSS

- IC50 (read off the curve) [9]: ~200 ng/well
- IC50 (read off the curve) [10]: ~200 nM
B9: 65B2 (VHH)
VHH: EVQLVESGGGLVQAGGSLRLSCATSGRTFSSDVMGWFRQAPGKEREFVAAINRSGHSTSYTGSVKGRFAISRDNTKNTVYLQMNSLKPEDTAVYYCALRLWSDYLAQKSGEYNYWGQGTQVTVSS
notes: Nanobody against CD28

- IC50 (read off the curve) [7]: ~10 nM
B10: 95H8 (VHH)
VHH: EVQLVESGGGLVQTGGSLRLSCAASSSTSTSSIDVMGWYRQSPGKQRELVASISSFGSTYYADSVKGRFIISRDNAKNTVNLQMNNLKLEDTAVHFCNLRRLSPPPLLDYWGQGTQVTVSS
notes: as for B5

- IC50 (read off the curve) [7]: ~10 nM
B11: 95A6 (VHH)
VHH: EVQLVESGGGLVQAGGSLRLSCALSGRAVSIAATAMGWYRQAPGKQRELVAARWSGGSIQYLDSVKGRFTISRDNAKNTVYLQMNSLTPEDTAVYYCNTLPWRANYSGQGTQVTVSS
notes: as for B5

- IC50 (read off the curve) [11]: ~10 nM
- IC50 (read off the curve) [12]: ~10 nM
B12: 102C3 (VHH)
VHH: EVQLVESGGGLVQAGKSLRLSCAASGSIFSIHAMGWFRQAPGKEREFVAAITWSGGITYYEDSVKGRFTISRDNAKNTVYLQMNSLKPEDTAIYYCAADRAESSWYDYWGQGTQVTVSS
notes: Nanobody against PD-1

- IC50 (read off the curve) [11]: ~80 nM
- IC50 (read off the curve) [12]: ~70 nM
B13: 102C12 (VHH)
VHH: B12 VHH with K16G, F29A, A50V, E61A, A98G, R100K, A101H, E102Q
notes: Nanobody against PD-1

- IC50 (read off the curve) [11]: ~200 nM
- IC50 (read off the curve) [12]: ~200 nM
B14: 102E8 (VHH)
VHH: B12 VHH with K16G, R19G, H32N, G35A, A50L, T52S, I57S, A101V, E102D, S104N
notes: Nanobody against PD-1

- IC50 (read off the curve) [11]: ~70 nM
- IC50 (read off the curve) [12]: ~70 nM
B15: 102E2 (VHH)
VHH: B12 VHH with K16G, F29S, E61A, V64L, V79G, E102Q
notes: Nanobody against PD-1

- IC50 (read off the curve) [10]: ~100 nM
B16: 70F9 (VHH)
VHH: EVQLVESGGGLVQAGGSLRLSCAASGRTFSSYVMGWFRQAPGKEREFVAAHSWYADYADSVKGRFSISRDNDKNTVYLQMNSLKPEDTAVYYCAASRSQGRRYANSYESWGQGTQVTVSS
notes: Nanobody against CD28

- IC50 (read off the curve) [10]: ~200 nM
B17: 70F10 (VHH)
VHH: EVQLVESGGGLVQAGGSLRLSCAASGFTFDDYAIGWFRQAPGKEREGVACVSNSDGSTYYANSVKGRFTISSDNAKNTVYLQMNSLKPEDTAVYYCAADSRCWGWGMLHMRHGDRGQGTQVTVSS
notes: Nanobody against CD28
